Laboratory results reported in article PMC8101287.

Molecular target: human LAG‐3 on JRT LAG‐3^+ C8 cells (human) (UniProt P18627)
Assay: flow cytometry on cells

Sequence of human LAG‐3 on JRT LAG‐3^+ C8 cells (human) (P18627 23-525): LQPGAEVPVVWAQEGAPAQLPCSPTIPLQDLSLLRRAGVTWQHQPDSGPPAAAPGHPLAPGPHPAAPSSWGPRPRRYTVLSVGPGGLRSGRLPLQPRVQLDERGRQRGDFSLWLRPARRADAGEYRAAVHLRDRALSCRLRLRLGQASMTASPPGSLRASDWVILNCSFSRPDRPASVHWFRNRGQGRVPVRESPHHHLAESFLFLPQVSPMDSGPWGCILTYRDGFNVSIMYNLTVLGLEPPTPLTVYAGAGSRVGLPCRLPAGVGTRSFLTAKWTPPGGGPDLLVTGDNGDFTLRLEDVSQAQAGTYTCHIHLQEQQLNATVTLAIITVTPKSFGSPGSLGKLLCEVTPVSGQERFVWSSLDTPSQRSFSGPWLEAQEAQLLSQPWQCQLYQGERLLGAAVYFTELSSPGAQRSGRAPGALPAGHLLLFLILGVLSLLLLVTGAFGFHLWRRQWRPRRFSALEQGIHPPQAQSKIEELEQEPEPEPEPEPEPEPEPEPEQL

## PE labeled pHLA‐DR1 dextramers loaded with HA_(306‐318) peptide (peptide-MHC)
  percent of cells with detectable multimer staining: 19%
